In general, Kd refers to a measure of binding affinity in units of concentration. What is called IC50 is the concentration that inhibits the measured activity by half. Higher therefore signals lower potency.

In test [1] the target is T1, FLAG-tagged 88C receptor (human, UniProt P51681 1-352).
T1 sequence: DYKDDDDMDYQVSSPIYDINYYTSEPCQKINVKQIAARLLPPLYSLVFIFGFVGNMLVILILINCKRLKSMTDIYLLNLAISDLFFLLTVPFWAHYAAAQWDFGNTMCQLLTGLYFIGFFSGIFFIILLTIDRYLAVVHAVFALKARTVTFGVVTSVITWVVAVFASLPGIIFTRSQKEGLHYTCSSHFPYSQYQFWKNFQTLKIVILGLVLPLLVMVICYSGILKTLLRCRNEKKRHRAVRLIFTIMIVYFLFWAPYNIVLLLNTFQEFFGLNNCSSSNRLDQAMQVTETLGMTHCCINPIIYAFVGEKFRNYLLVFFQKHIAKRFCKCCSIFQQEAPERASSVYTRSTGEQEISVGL
Briefly: cell-based or functional assay.

For test [2], the target named is T1, FLAG-tagged 88C receptor. Briefly: equilibrium binding of 125I-MIP-1β to HEK-293 cells expressing FLAG-tagged 88C, Scatchard analysis. The text has this: (§1) Another assay for receptor interaction with chemokines was a modification of the binding assay described by Ernst et al. *J. Immunol.* 152:3541–3549 (1994). MIP-1β as labeled using the Bolton and Hunter reagent (di-iodide, NEN, Wilmington, Del.), according to the manufacturer's instructions. Unconjugated iodide was separated from labeled protein by elution using a PD-10 column (Pharmacia) equilibrated with PBS and BSA (1% w/v). The specific activity was typically 2200 Ci/mmole. Equilibrium binding was performed by adding ^125I-labeled ligand with or without a 100-fold excess of unlabeled ligand, to 5×10^5 HEK-293 cells transfected with 88C tagged with the FLAG epitope in polypropylene tubes in a total volume of 300 µl (50 mM HEPES pH 7.4, 1 mM CaCl_2, MgCl_2, 0.5% BSA) and incubating for 90 minutes at 27° C. with shaking at 150 rpm. […] After washing, the filters were removed and bound ligand was quantitated by counting gamma emissions. Ligand binding by competition with unlabeled ligand was determined by incubation of 5×10^5 transfected cells (as above) with 1.5 nM of radiolabeled ligand and the indicated concentrations of unlabeled ligand. The samples were collected, washed and counted as above. The data was analyzed using the curve-fitting program Prism (GraphPad Inc., San Diego, Calif.) and the iterative non-linear regression program, LIGAND (PM220).

The target of test [3] is T1, FLAG-tagged 88C receptor. In words: competition of unlabelled ligand with 1.5 nM 125I-MIP-1β on HEK-293 cells expressing FLAG-tagged 88C.
From the text: as §1

B1: MIP-1β (ligand, UniProt P13236 24-92, looked up)
chain: APMGSDPPTACCFSYTARKLPRNFVVDYYETSSLCSQPAVVFQTKRSKQVCADPSESWVQEYVYDLELN
notes: also called MIP-1beta; radiolabeled MIP-1β
For the molecule B1, the “EC50 of inositol phosphate formation (phospholipase C assay), COS-7 cells co-transfected with Gqi5” value in the test with FLAG-tagged 88C receptor [1] is 6 nM. The Kd with FLAG-tagged 88C receptor [2] came to 1.6 nM. This molecule also showed an IC50 in the test with FLAG-tagged 88C receptor [3] of 7.4 nM.

Source of the values: patent publication US6797811.
